What was measured:
[1] = target: biotinylated human uPAR (human), Q03405; test: BLI (Octet) on biotinylated human uPAR; row 'None': no first antibody
[2] = target: human uPAR expressed on HEK293 cells (human), Q03405; test: flow cytometry, HEK293 cells expressing human uPAR, 100 nM uPA present
[3] = target: biotinylated human uPAR (human), Q03405; test: BLI (Octet) competition on biotinylated human uPAR; competitor (first antibody): M1
[4] = target: biotinylated human uPAR (human), Q03405; test: BLI (Octet) competition on biotinylated human uPAR; competitor (first antibody): M5
[5] = target: biotinylated human uPAR (human), Q03405; test: BLI (Octet) competition on biotinylated human uPAR; competitor (first antibody): ATN-368 (ATN-658)

B1: ATN-658 (antibody)
chain 1: not shown
chain 2: VQLQESGPELVKTGASVKISCKASGYSFTSYYMHWVKQSHGKSLEWIGEINPYNGGASYNQKIKGRATFTVDTSSRTAYMQFNSLTSEDSAVYYCARSIYGHSVLDYWGQGTTVTVS
modifications: not checked
response in competition assay [1]: 0.33 | EC50 [2]: 3.99 nM | response in competition assay [3]: -0.0144 | response in competition assay [4]: 0.387 | response in competition assay [5]: -0.0274

Source: US20220340678A1
